In the supplement of paper PMC10567573 one finds protein stability index data, which are given here for 53 proteins.

The nature of the data set: protein stability index of a GFP-peptide fusion (GPS, HEK-293T) (PSI 1-6); higher = more stable.
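Note: lentivirally expressed fusions sorted by FACS into six bins by GFP to DsRed ratio, PSI derived from sequencing read proportions per bin multiplied by bin number.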

NDDSADYQHFLQDCVDGLFKEVKE: the protein stability index (parent: IOH28890_220, c terminus: a fixed tail appended) is 2.66.

HTGERPYECTVCKKRFTRRSHLIG: the protein stability index (parent: IOH29221_63, c terminus: a fixed tail appended) turned out to be 2.07.

For the protein RIHTGERPYMCKECGKAFSQNSSL, the protein stability index (parent: IOH28719_47, c terminus: a fixed tail appended) came to 2.6.

With YVDVVFANRPDPNTPMEETVRAMT, the protein stability index (parent: IOH29625_26, c terminus: a fixed tail appended) turned out to be 1.96.

In the case of VHVIGVEEPSVGASMLFDIREST, under “parent: IOH28719_96, c terminus: native”, the protein stability index came to 2.07.

With SLGRHKRTHTGEKPYTCSVCGKSF, the protein stability index (parent: IOH28719_60, c terminus: a fixed tail appended) came to 2.55.

On to PGIDRPGMLCSFRIPGAWSCAWSL, for which the protein stability index (parent: IOH28737_29, c terminus: a fixed tail appended) was determined as 2.84.

For TGTSNTTAIKSIEFARKGSCFLIN [RBBP5 WT], the protein stability index (parent: IOH28957_33, c terminus: a fixed tail appended) was determined as 2.08.

On to YHSPELTTPPGHGTLDNSKSMKPY [NEUROD6 WT], for which, for the setting “parent: IOH27687_36, c terminus: a fixed tail appended”, the protein stability index was determined as 2.22.

For the protein DSHILLCLMGLAETPGCATLLPAS, the protein stability index (parent: IOH28737_24, c terminus: a fixed tail appended) came to 2.86.

For the protein RLRGLLRVLRGRPGAGSRRRGRMA [FBXO33 WT], the protein stability index (parent: IOH28939_7, c terminus: a fixed tail appended) was determined as 2.16.

For the protein PILRLLPQGISPVSQHWATWALYN, where the note is “parent: IOH29391_115, c terminus: a fixed tail appended”, the protein stability index came to 3.03.

As to TLHQRTHTEERPFKCNYCGKSFRQ, the protein stability index (parent: IOH29221_76, c terminus: a fixed tail appended) turned out to be 2.24.

On to YRHQRLHTGERPYECTVCKKRFTR, for which the protein stability index (parent: IOH29221_62, c terminus: a fixed tail appended) amounted to 2.36.

Turning to PTVDLNQVLNETRSQYEALVETNR, for the setting “parent: IOH28032_44, c terminus: a fixed tail appended”, the protein stability index was determined as 3.1.

For FVKALDDLHKMNHVTPPNVSLGAT [JUNB WT], under “parent: IOH27814_24, c terminus: a fixed tail appended”, the protein stability index worked out at 1.94.

For the protein YINFRHLYKQRRRRYGQKKKKIH, the protein stability index (parent: IOH29075_58, c terminus: native) came out at 2.11.

As to YSFYMLTCIDMDWKVLTWLRYTLW, the protein stability index (parent: IOH29075_44, c terminus: a fixed tail appended) was 2.31.

Regarding ISEYEKSLQFDEKCLSIMLAEWEA [RPAIN WT], the protein stability index (parent: IOH28888_19, c terminus: a fixed tail appended) turned out to be 1.85.

Turning to RDAIEALCRRLNTLNKCAVMKLEI, the protein stability index (parent: IOH28890_83, c terminus: a fixed tail appended) is 2.68.

As to CTHCSKSFRQRAGLIMHQVTHFRG, the protein stability index (parent: IOH29221_83, c terminus: a fixed tail appended) stood at 2.

On to SSIIHEIDSILGNKPYSKKDYRS, for which the protein stability index (parent: IOH29625_62, c terminus: native) worked out at 2.88.

Take LQRASILDMRRDHEEQLQRLKLLK: under “parent: IOH27821_117, c terminus: a fixed tail appended”, the protein stability index is 3.67.

With EPHKCPECGKRFLRSSDLYRHQRL, the protein stability index (parent: IOH29221_59, c terminus: a fixed tail appended) is 3.96.

Turning to TTKCVRQYEGHVNEYAYLPLHVHE, where the note is “parent: IOH28737_51, c terminus: a fixed tail appended”, the protein stability index was 2.65.

For PCAGSTSLSHSPGCSSTQGNGRPG, the protein stability index (parent: IOH28989_16, c terminus: a fixed tail appended) amounted to 3.04.

As for FGDSPKAEKRQIGDQEGPRPARST, the protein stability index (parent: IOH27821_37, c terminus: a fixed tail appended) amounted to 4.98.

In the case of QLQCSPAELQAELLHSQARLAELE, the protein stability index (parent: IOH27821_96, c terminus: a fixed tail appended) was 3.22.

Take YQSYFKTIEELQQKILCAKAENAR: under “parent: IOH28032_25, c terminus: a fixed tail appended”, the protein stability index was 1.83.

Turning to FHALVREIRRKEKEAVLAMEKKSK [RIT1 WT], the protein stability index (parent: IOH29584_30, c terminus: a fixed tail appended) worked out at 1.93.

On to IPPYSRASLKGYQWLKDKILSEEG, for which the protein stability index (parent: IOH29625_44, c terminus: a fixed tail appended) worked out at 1.84.

On to FQEYDTDCEVFRQRFRQFQYREAA, for which the protein stability index (parent: IOH29221_4, c terminus: a fixed tail appended) is 2.58.

Regarding YQSGGRLKRPVNVPFDIFTEEVKF [KCNA4 WT], under “parent: IOH29649_40, c terminus: a fixed tail appended”, the protein stability index came to 1.82.

RIHSGEEPHKCPECGKRFLRSSDL: for the setting “parent: IOH29221_58, c terminus: a fixed tail appended”, the protein stability index is 3.27.

Turning to VFGRGDNISDVSKFLEDDKWMEE [CROP WT], the protein stability index (parent: IOH29119_14, c terminus: native) came to 1.95.

For YQRPQDSEDMWGDEDFTFGAYQPT, the protein stability index (parent: IOH27821_46, c terminus: a fixed tail appended) came out at 2.9.

On to QLTGHQRIHSGEEPHKCPECGKRF, for which the protein stability index (parent: IOH29221_57, c terminus: a fixed tail appended) was 4.05.

PMYFFLGNLSVLDVGCISVTVPSM [OR3A1 WT]: the protein stability index (parent: IOH28412_11, c terminus: a fixed tail appended) came out at 2.98.

As to TLARMSRRTRGPVERAAAAAAAAA [C6orf223 WT], the protein stability index (parent: IOH28619_19, c terminus: a fixed tail appended) amounted to 2.35.

Turning to FDGPEAWGVCEPQREEVEERMWAA, the protein stability index (parent: IOH29391_108, c terminus: a fixed tail appended) was determined as 2.7.

Take YKVKERLGTLKNPPKKKMKLMSG: the protein stability index (parent: IOH28989_68, c terminus: native) came out at 1.99.

Regarding FHCIETLVTTGANVNETDDWGRTA [ANKRD44 WT], the protein stability index (parent: IOH28621_76, c terminus: a fixed tail appended) was 1.99.

Regarding KRSWEEHVTHWMGQPFNSDDRNTA, under “parent: IOH28890_2, c terminus: a fixed tail appended”, the protein stability index was found to be 2.65.

Consider KPYTCSVCGKSFSRTTCLFLHLRT, for which the protein stability index (parent: IOH28719_62, c terminus: a fixed tail appended) came out at 2.03.

On to RTHTGEKPYTCSVCGKSFSRTTCL, for which, where the note is “parent: IOH28719_61, c terminus: a fixed tail appended”, the protein stability index stood at 2.43.

With AEVVKIRDSFSNQNTETKDTKSR, the protein stability index (parent: IOH28890_253, c terminus: native) is 2.4.

Take YPPPPPALPSSAPSGPPPPPPSVL [WASL WT]: the protein stability index (parent: IOH28816_58, c terminus: a fixed tail appended) worked out at 4.3.

For the protein HVTHWMGQPFNSDDRNTACHHGLV, for the setting “parent: IOH28890_3, c terminus: a fixed tail appended”, the protein stability index was found to be 2.14.

Consider KISGGPRISYPLLHEWALREGEE [MAGEA6 WT], for which, for the setting “parent: IOH28024_53, c terminus: native”, the protein stability index was found to be 2.93.

HKKKSPGEKPHRCPQCGKCFARKS: the protein stability index (parent: IOH29221_53, c terminus: a fixed tail appended) came out at 3.46.

With HAPTIHFNYRYFEVEEADGNKQWW [CPOX WT], for the setting “parent: IOH27839_43, c terminus: a fixed tail appended”, the protein stability index stood at 2.33.

With AIQGISEKEKAEIEAKEACDWLRA, the protein stability index (parent: IOH28890_74, c terminus: a fixed tail appended) turned out to be 4.41.

Turning to KEMARKVIEHCSNFKEENMDTSR, the protein stability index (parent: IOH29391_126, c terminus: native) amounted to 3.58.
